Data on 1 substance can be found in paper PMC9461663, “Covalent Inhibition of Pyruvate Kinase M2 Reprograms Metabolic and Inflammatory Pathways in Hepatic Macrophages against Non-alcoholic Fatty Liver Disease” (International Journal of Biological Sciences, 2022).

In the assay the target is Pyruvate kinase M2 (mouse (endogenous in RAW264.7)) (UniProt P52480). The assay can be described thus: not stated; PKM2 tetramer in LPS-treated RAW264.7 cells with celastrol (Fig. S4); method not given.

Pyruvate kinase M2, P52480 1-531 (enzyme; other documents disagree on this pair), sequence (P52480 whole entry): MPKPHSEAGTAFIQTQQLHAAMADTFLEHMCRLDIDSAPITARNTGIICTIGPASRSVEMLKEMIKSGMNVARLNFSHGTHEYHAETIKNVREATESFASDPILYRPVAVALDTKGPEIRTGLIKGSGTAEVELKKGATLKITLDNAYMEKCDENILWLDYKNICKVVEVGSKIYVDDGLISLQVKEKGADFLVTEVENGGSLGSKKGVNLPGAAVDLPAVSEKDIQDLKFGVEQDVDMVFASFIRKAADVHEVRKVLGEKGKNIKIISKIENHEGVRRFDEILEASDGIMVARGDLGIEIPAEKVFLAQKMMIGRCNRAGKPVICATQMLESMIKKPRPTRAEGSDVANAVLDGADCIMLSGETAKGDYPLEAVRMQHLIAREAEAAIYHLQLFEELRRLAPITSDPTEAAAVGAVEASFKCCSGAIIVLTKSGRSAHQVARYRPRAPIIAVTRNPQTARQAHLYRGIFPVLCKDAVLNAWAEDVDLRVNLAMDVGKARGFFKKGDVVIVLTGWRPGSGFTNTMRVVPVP

As usually defined, the stoichiometry N is the number of molecules, sites or subunits per partner or assembly. Regarding “Pyruvate kinase M2, P52480 1-531 (enzyme; other documents disagree on this pair)”, the stoichiometry N is 4.
